Reference: US20200292534A1 (PROMEGA, published 2020)
Starred links: 1 amine or outer side, 2 acyl side, 3 side chain; linkers in the order of their positions; H or OH if unused. No end group written: not given here. NH(CH2)3(OCH2CH2)2O(CH2)3NH = C(CN[*:1])COCCOCCOCCCN[*:2]

What was measured:
[1] = biological target: T1, NLpoly WT; assay: luminescence complementation titration (E. coli lysate NLpoly, synthetic NLpep), one site-specific binding fit
T1 construct: also called WT NLpoly
T1 chain: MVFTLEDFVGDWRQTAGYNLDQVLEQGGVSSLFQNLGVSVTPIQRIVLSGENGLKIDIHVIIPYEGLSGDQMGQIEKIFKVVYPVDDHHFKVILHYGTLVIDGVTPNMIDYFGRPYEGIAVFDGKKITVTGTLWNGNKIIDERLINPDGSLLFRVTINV

[2] = biological target: T2, NLpoly11S; assay: luminescence complementation titration at several furimazine concentrations, 1-site fit
T2 construct: Non-luminescent polypeptide (engineered large fragment of NanoLuc); Used as E. coli clarified lysate or as purified protein; also called 11S (12 - A51T); LSP 11S
T2 chain: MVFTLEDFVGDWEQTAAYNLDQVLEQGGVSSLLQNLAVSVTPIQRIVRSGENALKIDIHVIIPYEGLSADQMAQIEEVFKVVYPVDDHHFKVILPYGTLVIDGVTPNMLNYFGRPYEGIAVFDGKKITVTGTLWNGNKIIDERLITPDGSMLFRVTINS

[3] = biological target: T2, NLpoly11S; assay: spectral scan of luminescence, purified NLpoly11S + peptide
[4] = biological target: T1, NLpoly WT; assay: BRET wavelength scan, NLpoly WT lysate + peptide
[5] = biological target: T2, NLpoly11S; assay: luminescence complementation titration on purified NLPoly11S, 1 site specific binding fit
[6] = biological target: T2, NLpoly11S; assay: luminescence complementation titration, one-site specific binding fit
[7] = biological target: T2, NLpoly11S; assay: luminescence of purified NLpoly11S in NanoGlo with peptide

B1: NLpep1 (peptide)
peptide: GVTGWRLCERILA
notes: also called NLpepWT; NLPep1 (WT)
- Kd [1]: ~10 µM
- binding result [2]: binds

B2: PBI-4877 (peptide)
peptide: GVTGWRLCERILA-{NH(CH2)3(OCH2CH2)2O(CH2)3NH-6‑tetramethylrhodamine}
notes: also called NLpep1-TMR; NLPep1-fluorophore
- binding result [3]: binds
- binding result [4]: binds

B3: NLpep114 (peptide)
peptide: VTGYRLFEEIL
notes: Synthetic; also called NLpep114 (w/o Met)
- binding result [5]: binds

B4: array2.52 (peptide)
peptide: Ac-VTGYRLFEEIL-NH2
- Kd [6]: 104 µM

B5: GWALFKK (peptide)
peptide: GWALFKK
notes: Dark peptide; also called NLpep162 (w/o Met)
- binding result [7]: binds

B6: Dabcyl-GWALFKK (peptide)
peptide: GWALFKK
modifications: not fully specified (N-terminus); printed as Dabcyl-GWALFKK
notes: Quencher peptide
- binding result [7]: binds
